Results: patent US20240270821A1, “GIP/GLP1/GCG TRI-RECEPTOR AGONISTS AND USES THEREOF” (priority 2023, published 2024)

T1: human GIP receptor (human) (UniProt P48546)
T1 sequence (looked up): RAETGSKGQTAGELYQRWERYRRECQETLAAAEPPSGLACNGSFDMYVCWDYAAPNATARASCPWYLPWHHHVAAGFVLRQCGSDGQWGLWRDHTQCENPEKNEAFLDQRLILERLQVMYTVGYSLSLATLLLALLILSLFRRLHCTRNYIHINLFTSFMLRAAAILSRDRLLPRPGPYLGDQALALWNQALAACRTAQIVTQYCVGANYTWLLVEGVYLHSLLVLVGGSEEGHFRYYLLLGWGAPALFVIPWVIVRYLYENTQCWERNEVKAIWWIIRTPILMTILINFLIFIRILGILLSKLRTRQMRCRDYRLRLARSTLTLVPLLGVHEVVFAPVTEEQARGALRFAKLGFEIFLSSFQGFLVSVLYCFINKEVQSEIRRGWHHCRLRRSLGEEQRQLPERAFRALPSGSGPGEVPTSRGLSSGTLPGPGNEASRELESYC


What was measured:
Assay in all cases: cell-based or functional assay
[1] = target: T1, human GIP receptor (human)
[2] = target: human glucagon receptor (human) (UniProt P47871)
human glucagon receptor (human), sequence (P47871 26-477): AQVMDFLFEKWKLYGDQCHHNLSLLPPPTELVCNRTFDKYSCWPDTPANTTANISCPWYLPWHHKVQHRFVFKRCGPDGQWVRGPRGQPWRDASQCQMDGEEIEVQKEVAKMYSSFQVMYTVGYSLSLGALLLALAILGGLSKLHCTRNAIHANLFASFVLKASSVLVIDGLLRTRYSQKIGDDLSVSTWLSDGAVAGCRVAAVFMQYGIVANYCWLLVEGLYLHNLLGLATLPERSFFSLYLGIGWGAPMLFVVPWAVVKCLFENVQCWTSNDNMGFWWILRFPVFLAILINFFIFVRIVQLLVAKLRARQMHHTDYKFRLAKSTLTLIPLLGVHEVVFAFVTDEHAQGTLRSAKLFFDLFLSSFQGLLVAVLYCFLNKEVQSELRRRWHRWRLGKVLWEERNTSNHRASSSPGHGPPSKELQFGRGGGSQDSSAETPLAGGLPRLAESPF

hGLP-1R = hGLP-1R (Homo sapiens, UniProt P43220)
hGLP-1R, sequence (P43220 24-463): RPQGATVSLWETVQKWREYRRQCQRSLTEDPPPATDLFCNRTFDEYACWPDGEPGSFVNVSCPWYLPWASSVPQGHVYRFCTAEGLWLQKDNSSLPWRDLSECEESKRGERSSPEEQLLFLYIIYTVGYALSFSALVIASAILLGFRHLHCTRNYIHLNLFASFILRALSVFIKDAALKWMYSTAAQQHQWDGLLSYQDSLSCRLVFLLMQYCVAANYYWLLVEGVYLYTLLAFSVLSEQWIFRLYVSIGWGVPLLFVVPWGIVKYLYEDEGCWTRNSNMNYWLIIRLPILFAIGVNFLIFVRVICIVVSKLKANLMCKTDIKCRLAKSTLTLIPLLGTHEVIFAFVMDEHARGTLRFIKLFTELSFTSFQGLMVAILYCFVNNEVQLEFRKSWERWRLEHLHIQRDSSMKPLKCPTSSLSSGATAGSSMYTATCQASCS

| Binder | Relative cAMP EC50, nM (0.1% casein) [1] [nM] | cAMP Rel EC50, nM (1% HSA) [1] [nM] | Relative cAMP EC50, nM (0.1% casein) [2] [nM] | cAMP Rel EC50, nM (1% HSA) [2] [nM] | Relative cAMP EC50, nM (0.1% casein) (hGLP-1R) [nM] | cAMP Rel EC50, nM (1% HSA) (hGLP-1R) [nM] | Relative cAMP EC50 [1] [nM] | Relative cAMP EC50 [2] [nM] | Relative cAMP EC50 (hGLP-1R) [nM] |
| --- | --- | --- | --- | --- | --- | --- | --- | --- | --- |
| YXQGTFTSDFSQXLDKKAQXAFIEYLLEGGPSSGAPPPSGS (synthetic construct; SITE 2: note = 2-Aminoisobutyric Acid; SITE 13: note = alpha-methyl-leucine; SITE 17: note = Lysine is chemically modified through conjugation of the epsilon-amino group of the Lysine side chain with (2-[2-(2-Amino-ethoxy)-ethoxy]-acetyl)-(gamma-Glu)-CO-(CH2) 16-CO2H; SITE 20: n) [Example 150] | 0.346 | 50.6 | 5.37 | 1920 | 2.63 | 463 | – | – | – |
| YXQGTFTSDXSXXLDKKAQXAFIEYLLEXGPSSGAPPPSGS (non-natural residues; lysine acylated AEEA-γGlu-C18 diacid; C-terminal amide; synthetic construct; SITE 2: note = 2-Aminoisobutyric Acid; SITE 10: note = 4-cyano-L-phenylalanine; SITE 12: note = L-ornithine; SITE 13: note = alpha-methyl-leucine; SITE 17: note = Lysine is chemically modified through conjugation of the epsilon-amino group of the Lysine side chain with (2-[2-(2-) [Example 191] | 0.422 | – | 2.11 | – | 2.48 | – | – | – | – |
| YXQGTFTSDFSXXLDKKAQXAFIEYLLEAGPSSGAPPPSGT (non-natural residues, lysine acylation, C-terminal amide; synthetic construct; SITE 2: note = 2-Aminoisobutyric Acid; SITE 12: note = L-ornithine; SITE 13: note = alpha-methyl-leucine; SITE 17: note = Lysine is chemically modified through conjugation of the epsilon-amino group of the Lysine side chain with (2-[2-(2-Amino-ethoxy)-ethoxy]-acetyl)-(gamma-Glu)) [Example 210] | – | – | – | – | – | – | 0.153 | 2.81 | 1.44 |
| YXQGTFTSDFSXXLDKKAQXAFIEYLLEXGPSSGEPPPEGS (synthetic construct; SITE 2: note = 2-Aminoisobutyric Acid; SITE 12: note = L-ornithine; SITE 13: note = alpha-methyl-leucine; SITE 17: note = Lysine is chemically modified through conjugation of the epsilon-amino group of the Lysine side chain with (2-[2-(2-Amino-ethoxy)-ethoxy]-acetyl)2-(gamma-Glu)) [Example 195] | 0.145 | 28.8 | 3.1 | 605 | 6.13 | 829 | – | – | – |
| YXQGTFTSDFSXXLDKKAQXAFIEYLLEXGXSSGAPPPSGT (synthetic construct; SITE 2: note = 2-Aminoisobutyric Acid; SITE 12: note = L-ornithine; SITE 13: note = alpha-methyl-leucine; SITE 17: note = Lysine is chemically modified through conjugation of the epsilon-amino group of the Lysine side chain with (2-[2-(2-Amino-ethoxy)-ethoxy]-acetyl)2-(gamma-Glu)) [Example 184] | 0.162 | 16.2 | 5.23 | 1050 | 5.02 | 465 | – | – | – |
| YXQGTFTSDFSRXLDKKAQXAFIEYLIEGGESSGAPPPSGS (acylated; synthetic construct; SITE 2: note = 2-Aminoisobutyric Acid; SITE 13: note = alpha-methyl-leucine; SITE 17: note = Lysine is chemically modified through conjugation of the epsilon-amino group of the Lysine side chain with (2-[2-(2-Amino-ethoxy)-ethoxy]-acetyl)-(gamma-Glu)-CO-(CH2) 16-CO2H; SITE 20: n) [Example 220] | – | 87.1 | – | 1990 | – | 189 | 0.411 | 11.2 | 1.01 |
| YXQGTFTSDFSXXLDKKAQXAFIEYLLEGGPSSGAPPPGGQ (synthetic construct; SITE 2: note = 2-Aminoisobutyric Acid; SITE 12: note = L-ornithine; SITE 13: note = alpha-methyl-leucine; SITE 17: note = Lysine is chemically modified through conjugation of the epsilon-amino group of the Lysine side chain with (2-[2-(2-Amino-ethoxy)-ethoxy]-acetyl)-(gamma-Glu)) [Example 159] | 0.343 | 49.7 | 6.89 | 475 | 4.15 | 588 | – | – | – |
| YXQGTFTSDFSRXLDKKAQXAFIEYLIEXGESSGAPPPSGS (C-terminal amide; lysine acylated with AEEA-γ-Glu-C18 diacid; synthetic construct; SITE 2: note = 2-Aminoisobutyric Acid; SITE 13: note = alpha-methyl-leucine; SITE 17: note = Lysine is chemically modified through conjugation of the epsilon-amino group of the Lysine side chain with (2-[2-(2-Amino-ethoxy)-ethoxy]-acetyl)-(gamma-Glu)-CO-(CH2) 16-CO2H; SITE 20: n) [Example 221] | – | – | – | – | – | – | 0.105 | 11.3 | 0.629 |
| YXQGTFTSDFSXXLDKKAQXAFIEYLLEAGPSSGEPPPSGT (synthetic construct; SITE 2: note = 2-Aminoisobutyric Acid; SITE 12: note = L-ornithine; SITE 13: note = alpha-methyl-leucine; SITE 17: note = Lysine is chemically modified through conjugation of the epsilon-amino group of the Lysine side chain with (2-[2-(2-Amino-ethoxy)-ethoxy]-acetyl)2-(gamma-Glu)) [Example 156] | 0.208 | 25.8 | 3.62 | 1520 | 3.37 | 695 | – | – | – |
| YXQGTFTSDFSXXLDKKAQXAFIEYLLAGGPSSGEPPPEGS (synthetic construct; SITE 2: note = 2-Aminoisobutyric Acid; SITE 12: note = L-ornithine; SITE 13: note = alpha-methyl-leucine; SITE 17: note = Lysine is chemically modified through conjugation of the epsilon-amino group of the Lysine side chain with (2-[2-(2-Amino-ethoxy)-ethoxy]-acetyl)-(gamma-Glu)) [Example 152] | 0.259 | 23.2 | 6.91 | 1090 | 4.03 | 491 | – | – | – |
| YXQGTFTSDFSXXLDKKAQXAFIEYLLEGGESSGAPPPGGS (synthetic construct; SITE 2: note = 2-Aminoisobutyric Acid; SITE 12: note = L-ornithine; SITE 13: note = alpha-methyl-leucine; SITE 17: note = Lysine is chemically modified through conjugation of the epsilon-amino group of the Lysine side chain with (2-[2-(2-Amino-ethoxy)-ethoxy]-acetyl)-(gamma-Glu)) [Example 161] | 0.555 | 87.3 | 4.83 | 902 | 5.22 | 963 | – | – | – |
| YXQGTFTSDFSXXLDKKAQXAFIEYLLEXGHSSGAPPPSGT (synthetic construct; SITE 2: note = 2-Aminoisobutyric Acid; SITE 12: note = L-ornithine; SITE 13: note = alpha-methyl-leucine; SITE 17: note = Lysine is chemically modified through conjugation of the epsilon-amino group of the Lysine side chain with (2-[2-(2-Amino-ethoxy)-ethoxy]-acetyl)2-(gamma-Glu)) [Example 182] | 0.0781 | 9.95 | 5.33 | 1480 | 4.8 | 398 | – | – | – |
| YXQGTFTSDFSXXLDKKAQXAFIEYLIEXGESSGAPPPSGE (non-natural residues; lipidated Lys; C-terminal amide; synthetic construct; SITE 2: note = 2-Aminoisobutyric Acid; SITE 12: note = L-ornithine; SITE 13: note = alpha-methyl-leucine; SITE 17: note = Lysine is chemically modified through conjugation of the epsilon-amino group of the Lysine side chain with (2-[2-(2-Amino-ethoxy)-ethoxy]-acetyl)-(gamma-Glu)) [Example 219] | – | – | – | – | – | – | 0.119 | 7.77 | 0.835 |
| YXQGTFTSDFSKXLDKKAQXAFIEYLIEXGESSGAPPPSGS (acylated; synthetic construct; SITE 2: note = 2-Aminoisobutyric Acid; SITE 13: note = alpha-methyl-leucine; SITE 17: note = Lysine is chemically modified through conjugation of the epsilon-amino group of the Lysine side chain with (2-[2-(2-Amino-ethoxy)-ethoxy]-acetyl)-(gamma-Glu)-CO-(CH2) 16-CO2H; SITE 20: n) [Example 216] | – | 12 | – | 895 | – | 90.6 | 0.0887 | 2.7 | 0.52 |
